Patent US20080102065A1 (published 2008)
Where a chain is given by its changes, count along the chain named.

Legend:
[1] = target: T1, huEpoR expressed on the cell surface (UT-7 cells) (human, UniProt P19235 25-508); assay: cell-based or functional assay
T1 sequence (looked up): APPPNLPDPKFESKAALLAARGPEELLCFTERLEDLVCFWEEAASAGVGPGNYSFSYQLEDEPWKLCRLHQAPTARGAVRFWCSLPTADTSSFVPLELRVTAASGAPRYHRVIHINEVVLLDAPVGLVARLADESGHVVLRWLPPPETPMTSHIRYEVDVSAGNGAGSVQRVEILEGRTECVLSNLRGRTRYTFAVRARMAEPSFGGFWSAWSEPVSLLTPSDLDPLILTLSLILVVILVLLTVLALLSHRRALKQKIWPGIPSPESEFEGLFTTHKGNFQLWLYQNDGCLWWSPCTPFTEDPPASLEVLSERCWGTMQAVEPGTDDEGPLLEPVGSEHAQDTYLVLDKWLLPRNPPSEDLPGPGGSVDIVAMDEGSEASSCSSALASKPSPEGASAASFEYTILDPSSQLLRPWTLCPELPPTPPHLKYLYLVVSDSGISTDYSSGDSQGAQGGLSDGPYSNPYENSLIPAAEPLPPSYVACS

mouse EpoR (muEpoR) = target: T2, mouse EpoR (muEpoR) (mouse, UniProt P14753 25-249, limits assumed); assay: ELISA on coated muEpoR, scFv-Fc at 5 µg/ml (Example 17)
T2 sequence (looked up): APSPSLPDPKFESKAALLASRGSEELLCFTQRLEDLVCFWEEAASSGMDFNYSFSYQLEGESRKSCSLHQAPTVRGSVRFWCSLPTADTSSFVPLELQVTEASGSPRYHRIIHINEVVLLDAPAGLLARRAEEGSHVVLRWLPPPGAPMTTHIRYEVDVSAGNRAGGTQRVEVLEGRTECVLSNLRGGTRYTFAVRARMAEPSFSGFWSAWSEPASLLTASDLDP

[2] = target: T3, huEpoR protein (soluble human erythropoietin receptor) (human, UniProt P19235 25-250, limits assumed); assay: SPR, Biacore T100; scFv-Fc captured on anti-human IgG Fc CM5 chip, EpoR as analyte; 1:1 fit;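 further: measured at 25 °C in HBS-EP buffer with 0.1 mg/ml BSA, flowed at 50 µl/min, 1 min association then dissociation (10 min human, 5 min cyno EpoR)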
T3 construct: also called soluble huEpoR; biotinylated huEpoR
T3 sequence (looked up): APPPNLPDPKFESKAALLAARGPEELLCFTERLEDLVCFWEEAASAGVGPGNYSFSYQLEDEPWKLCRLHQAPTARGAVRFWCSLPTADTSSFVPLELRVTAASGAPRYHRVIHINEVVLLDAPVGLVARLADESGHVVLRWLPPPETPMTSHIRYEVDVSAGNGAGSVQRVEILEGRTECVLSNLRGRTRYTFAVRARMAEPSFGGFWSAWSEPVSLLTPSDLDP

[3] = target: T4, cynomolgus monkey EpoR (cynoEpoR) (cynomolgus monkey, UniProt A0A2K5WKK4 25-250); assay: as above
T4 construct: Soluble protein (coated in ELISA, analyte in SPR)
T4 sequence: T3 sequence (looked up) with A19V, G47A, G49S, G51D, Q58H, V112I, S135G, V138I, T148A

B1: Mxb 378 (clone 378 scFv-Fc protein) (Fc fusion)
VH: QVQLVESGGGLVQPGRSLILSCAVSGFTFSKYWMTWVRQAPGKGLEWVANIKPDGSEKYYVESVKGRFTISRDNAKNSVYLQMNSVRAEDTAVYYCARVSRGGSFSDWSQGTLVTVSS
VL: QSALTQPPSASGSPGQSVTISCTGTSGDVGAYNYVSWYQQYPGKAPKLMIYEVSKRPSGVPDRFSGSKSGNTASLTVSGLQAEDEADYYCNSYRGSNGPWVFGGGTKVTVL
[1]
  Average EC50 (nM), UT-7-luciferase (STAT5 reporter) assay: 0.055 nM
  Ratio (EC50 of Epo / EC50 of the scFv-Fc), UT-7-luciferase assay: 0.175

B2: Mxb 295 (clone 295 scFv-Fc protein) (Fc fusion)
VH: EVQLVESGGGLVQPGGSLRLSCAASGFTFSSYAMSWVRQAPGKGLEWVSGISGSGSSEGGTYYADSVKGRFTLSRDNSKNTLYLQMNSLRAEDTALYYCVKDRPSRYSFGYYFDYWGRGTLVTVSS
VL: LPVLTQPPSVSVSPGQTASIACSGNKLGDKYVSWYQQKPGQSPLLVIYQDTKRPSGIPERFSGSNSGNTATLTISGTQAMDEADYYCQAWDSSTDVVFGGGTKLTVL
notes: Tested as scFv-Fc (maxibody) with an Fc derived from human IgG1
[1]
  Average EC50 (nM), UT-7-luciferase (STAT5 reporter) assay: 0.607 nM
  Ratio (EC50 of Epo / EC50 of the scFv-Fc), UT-7-luciferase assay: 0.016
Mouse EpoR (muEpoR)
  binding result: no binding (tested: 5 µg/ml)
[2]
  Kd: 163 nM
  koff: 0.00296 s⁻¹
  kon: 18000 M⁻¹ s⁻¹
[3]
  Kd: 539 nM
  koff: 0.0221 s⁻¹
  kon: 41000 M⁻¹ s⁻¹

B3: Mxb 16 (clone 16 scFv-Fc protein) (Fc fusion)
VH: QVQLQESGPGLVKPSETLSLTCTVSGGYINNYYWSWIRQPPGKGLEWIGYIHYSGSTYYNPSLKSRVTISEDTSKNQFSLKLSSATAADTAVYYCARVGYYYDSSGYNLAWYFDLWGRGTLVTVSA
VL: SSELTQDPAVSVALGQTVRITCQGDNLRSYSATWYQQKPGQAPVLVLFGENNRPSGIPDRFSGSKSGDTAVLTITGTQTQDEADYYCTSRVNSGNHLGVFGPGTQLTVL
notes: as for B2
Mouse EpoR (muEpoR)
  binding result: no binding (tested: 5 µg/ml)
[2]
  Kd: 2190 nM
  koff: 0.142 s⁻¹
  kon: 65000 M⁻¹ s⁻¹
[3]
  Kd: 4360 nM
  koff: 0.283 s⁻¹
  kon: 65000 M⁻¹ s⁻¹

B4: Mxb 15 (clone 15 scFv-Fc protein) (Fc fusion)
VH: QVQLQESGPGLVRPSGTLSLTCAVSGGSIGSSNWWSWVRQAPGKGLEWIGEISQSGSTNYNPSLKGRVTISLDRSRNQLSLKLSSVTAADTAVYYCARQLRSIDAFDIWGPGTTVTVSA
VL: SYVLTQPPSVSVSPGLTATITCSGDKLGDKYASWYQQKPGQSPVLVIYQDRKRPSGIPERFSGSNSGNTATLTISGTQAVDEADYYCQAWDSDTSYVFGTGTQLTVL
notes: as for B2
[1]
  Average EC50 (nM), UT-7-luciferase (STAT5 reporter) assay: 2.8 nM
  Ratio (EC50 of Epo / EC50 of the scFv-Fc), UT-7-luciferase assay: 0.003
Mouse EpoR (muEpoR)
  binding result: no binding (tested: 5 µg/ml)
[2]
  Kd: 1950 nM
  koff: 0.119 s⁻¹
  kon: 61000 M⁻¹ s⁻¹
[3]
  Kd: 3130 nM
  koff: 0.115 s⁻¹
  kon: 37000 M⁻¹ s⁻¹

B5: Mxb 201 (clone 201 scFv-Fc protein) (Fc fusion)
VH: QVQLQESGSGLARPSQTLSLTCAVSGGSISSSAFSWNWIRQPPGKGLEWIGYIYHTGITDYNPSLKSRVTISVDRSKNQFSLNVNSVTAADTAVYYCARGHGSDPAWFDPWGKGTLVTVSS
VL: QSVLTQPPSVSVSPGQTASITCSGDKLGDKYASWYQQRPGQSPVLVIYRDTKRPSGIPERFSGSNSGNTATLTISGTQAVDEADYYCQAWDSTTSLVFGGGTKLTVL
notes: as for B2
[1]
  Average EC50 (nM), UT-7-luciferase (STAT5 reporter) assay: 8.28 nM
  Ratio (EC50 of Epo / EC50 of the scFv-Fc), UT-7-luciferase assay: 0.001
[2]
  Kd: 4030 nM
  koff: 0.0187 s⁻¹
  kon: 4600 M⁻¹ s⁻¹

B6: Mxb 276 (clone 276 scFv-Fc protein) (Fc fusion)
VH: EVQLVQSGGGLVQPGGSLRLSCAASGFTFSSYWMSWVRQAPGKGLEWVANIKPDGSEKYYVDSVKGRFTISRDNAKNSVYLQMNSLRAEDTAVYYCARVSRGGSYSDWGRGTMVTVSS
VL: QSVLTQPPSASGSPGQSVTISCTGTSSDVGGFNYVSWYQKYPGKAPKLVIYEVSKRPSGVPDRFSGSKSGNTASLTVSGLQAEDEADYYCSSWAPGKNLFGGGTKLTVL
[1]
  Average EC50 (nM), UT-7-luciferase (STAT5 reporter) assay: 0.322 nM
  Ratio (EC50 of Epo / EC50 of the scFv-Fc), UT-7-luciferase assay: 0.03

B7: Mxb 323 (clone 323 scFv-Fc protein) (Fc fusion)
VH: B1 VH with R16G, I19R, S109G, Q110R, L113M
VL: QSALTQPASVSGSPGQSITISCTGTSSDVGSYNLVSWYQQHPGKVPKLIIYEVSNRPSGVSHRFSGSKSGNTASLTISGLQAEDEADYYCSSLTSSGTWVFGGGTKVTVL
[1]
  Average EC50 (nM), UT-7-luciferase (STAT5 reporter) assay: 0.613 nM
  Ratio (EC50 of Epo / EC50 of the scFv-Fc), UT-7-luciferase assay: 0.016

B8: Mxb 352 (clone 352 scFv-Fc protein) (Fc fusion)
VH: B6 VH with T28R, S35T, I70M, Y105F, R110Q, M113L
VL: QSALTQPASVSGSPGQSITIPCTGTSSDIGTYDYVSWYQQHPGKVPKVIIYEVTNRPSGVSNRFSGSKSGNTASLTISGLQADDEADYYCNSFTKNNTWVFGGGTKLTVL
[1]
  Average EC50 (nM), UT-7-luciferase (STAT5 reporter) assay: 2.16 nM
  Ratio (EC50 of Epo / EC50 of the scFv-Fc), UT-7-luciferase assay: 0.004

B9: Mxb 330 (clone 330 scFv-Fc protein) (Fc fusion)
VH: B1 VH with Q1E, R16G, I19R, S109G
VL: QSALTQPPSASGSPGQSVTISCTGTSSDVGAYNYVSWYQQHPGKAPKLMIYEVARRPSGVPDRFSGSKSGNTASLTVSGLQAEDEADYYCSSYAGSNNFAVFGRGTKLTVL
notes: as for B2
[1]
  Average EC50 (nM), UT-7-luciferase (STAT5 reporter) assay: 0.0075 nM
  Ratio (EC50 of Epo / EC50 of the scFv-Fc), UT-7-luciferase assay: 1.28
Mouse EpoR (muEpoR)
  binding result: no binding (tested: 5 µg/ml)
[2]
  Kd: 45.4 nM
  koff: 0.0373 s⁻¹
  kon: 822000 M⁻¹ s⁻¹
[3]
  Kd: 890 nM
  koff: 0.0965 s⁻¹
  kon: 108000 M⁻¹ s⁻¹

B10: Mxb 307 (clone 307 scFv-Fc protein) (Fc fusion)
VH: B1 VH with Q1E, R16G, I19R, S109G, L113M
VL: QSVLTQPPSASGSPGQSVTISCTGTSSDVGGYNYVSWYQQHPDKAPRLMIYDVNKRPSGVPDRFSGSKSGNTASLTVSGLQAEDEAHYYCNSYAGSNNWVFGGGTQLTVL
notes: as for B2
[1]
  Average EC50 (nM), UT-7-luciferase (STAT5 reporter) assay: 0.381 nM
  Ratio (EC50 of Epo / EC50 of the scFv-Fc), UT-7-luciferase assay: 0.025
Mouse EpoR (muEpoR)
  binding result: no binding (tested: 5 µg/ml)
[2]
  Kd: 108 nM
  koff: 0.246 s⁻¹
  kon: 2.28e+06 M⁻¹ s⁻¹
[3]
  Kd: 1210 nM
  koff: 0.361 s⁻¹
  kon: 299000 M⁻¹ s⁻¹

B11: Mxb 13 (clone 13 scFv-Fc protein) (Fc fusion)
VH: QVQLQQSGGGVVQPGRSLRLSCAASGFTFSDYAMHWVRQAPGKGLEWVAVISNHGKSTYYADSVKGRFTISRDNSKHMLYLQMNSLRADDTALYYCARDIALAGDYWGQGTLVTVSA
VL: DIQMTQSPSSLSASVGDRVTITCRASQSISSYLNWYQQLPGKVPKLLIYGASKLQSGVPSRFSGSGSGTDFTLTISSLQPEDFATYYCLQDYNYPLTFGPGTRLEIK
notes: as for B2
[1]
  Average EC50 (nM), UT-7-luciferase (STAT5 reporter) assay: 4.03 nM
  Ratio (EC50 of Epo / EC50 of the scFv-Fc), UT-7-luciferase assay: 0.002
Mouse EpoR (muEpoR)
  binding result: no binding (tested: 5 µg/ml)
[2]
  Kd: 1040 nM
  koff: 0.0568 s⁻¹
  kon: 55000 M⁻¹ s⁻¹
[3]
  Kd: 920 nM
  koff: 0.0597 s⁻¹
  kon: 65000 M⁻¹ s⁻¹

B12: Mxb 319 (clone 319 scFv-Fc protein) (Fc fusion)
VH: QVQLVQSGAEIKKPGASVKVSCKTFGSPFSTNDIHWVRQAPGQGLEWMGIIDTSGAMTRYAQKFQGRVTVTRETSTSTVYMELSSLKSEDTAVYYCAREGCTNGVCYDNGFDIWGQGTLVTVSS
VL: DIQMTQSPSTLSASIGDRVTITCRASEGIYHWLAWYQQKPGKAPKLLIYKASSLASGAPSRFSGSGSGTDFTLTISSLQPDDFATYYCQQYSNYPLTFGGGTKLEIK
notes: as for B2
[1]
  Average EC50 (nM), UT-7-luciferase (STAT5 reporter) assay: 5.87 nM
  Ratio (EC50 of Epo / EC50 of the scFv-Fc), UT-7-luciferase assay: 0.002
Mouse EpoR (muEpoR)
  binding result: no binding (tested: 5 µg/ml)
[2]
  Kd: 212 nM
  koff: 0.0335 s⁻¹
  kon: 158000 M⁻¹ s⁻¹
[3]
  Kd: 121 nM
  koff: 0.0258 s⁻¹
  kon: 213000 M⁻¹ s⁻¹
